Test results: article PMC7541222, “Novel single-domain antibodies against the EGFR domain III epitope exhibit the anti-tumor effect” (Journal of Translational Medicine, 2020)

Key:
[1] = target: T1, EGFR on human cancer cells A549, MCF-7 and DU145 (Homo sapiens, UniProt P00533); experiment: flow cytometry on cells; live cells (A549, MCF-7, DU145) in ice-cold PBS with BSA incubated with purified sdAbs; detected with protein A-FITC; conditions: one partner purified
T1 construct: Epidermal growth factor receptor (EGFR, HER1, ERBB1), endogenous on the surface of human cancer cell lines; also called HER1; ERBB1; source: endogenous, on live A549, MCF-7 and DU145 cells

[2] = target: T2, EndoF1 (Elizabethkingia meningoseptica (assumed), UniProt P36911); experiment: ELISA; wells of 96-well plates coated with EGFR protein fragment or unrelated antigens; purified sdAbs added; protein A-HRP, TMB, absorbance at 450 nm; conditions: both partners purified
T2 construct: EndoF1, unrelated antigen used as negative control

[3] = target: T3, BMP2 (Homo sapiens (assumed), UniProt P12643); experiment: as above; conditions: both partners purified
T3 construct: BMP2, unrelated antigen used as negative control

[4] = target: T4, FGF21 (Homo sapiens (assumed), UniProt Q9NSA1); experiment: as above; conditions: both partners purified
T4 construct: FGF21, unrelated antigen used as negative control

[5] = target: T5, EGFR complete extracellular domain protein (Homo sapiens (assumed), UniProt P00533); experiment: far-Western, overlay or dot blot; Western blotting: 0.5 ug EGFR complete extracellular domain separated by SDS-PAGE, transferred to PVDF; blot incubated with the sdAbs, then protein A-HRP, chemiluminescence; conditions: both partners purified
T5 construct: Epidermal growth factor receptor (EGFR, HER1, ERBB1), complete extracellular domain, bought; also called EGFR complete extracellular fragment; EGFR-ECD; source: bought: Shanghai Bootech BioSci. and Technol

[6] = target: T2, EndoF1; experiment: ELISA; monoclonal phage ELISA: wells of 96-well plates coated with EGFR protein fragment or unrelated antigens, blocked with 2% BSA; phage clones added; anti-M13-HRP, TMB, absorbance at 450 nm; conditions: one partner purified
[7] = target: T3, BMP2; experiment: as above; conditions: one partner purified
[8] = target: T4, FGF21; experiment: as above; conditions: one partner purified

T3 sequence (P12643 24-396): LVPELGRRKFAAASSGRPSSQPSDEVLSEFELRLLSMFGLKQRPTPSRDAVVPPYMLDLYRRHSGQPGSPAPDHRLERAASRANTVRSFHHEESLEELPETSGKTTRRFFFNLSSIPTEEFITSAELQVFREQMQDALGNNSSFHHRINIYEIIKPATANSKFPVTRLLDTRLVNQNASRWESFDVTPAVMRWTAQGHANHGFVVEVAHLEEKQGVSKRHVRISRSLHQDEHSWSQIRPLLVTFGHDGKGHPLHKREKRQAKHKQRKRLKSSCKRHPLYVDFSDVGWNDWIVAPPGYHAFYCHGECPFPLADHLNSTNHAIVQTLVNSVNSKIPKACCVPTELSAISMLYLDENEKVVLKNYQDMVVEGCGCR
T4 sequence (Q9NSA1 29-209): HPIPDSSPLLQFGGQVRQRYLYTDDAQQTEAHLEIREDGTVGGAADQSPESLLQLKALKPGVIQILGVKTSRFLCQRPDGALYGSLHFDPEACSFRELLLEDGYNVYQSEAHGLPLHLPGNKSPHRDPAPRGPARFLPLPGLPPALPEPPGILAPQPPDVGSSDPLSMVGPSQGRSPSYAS
T2 sequence (P36911 51-339): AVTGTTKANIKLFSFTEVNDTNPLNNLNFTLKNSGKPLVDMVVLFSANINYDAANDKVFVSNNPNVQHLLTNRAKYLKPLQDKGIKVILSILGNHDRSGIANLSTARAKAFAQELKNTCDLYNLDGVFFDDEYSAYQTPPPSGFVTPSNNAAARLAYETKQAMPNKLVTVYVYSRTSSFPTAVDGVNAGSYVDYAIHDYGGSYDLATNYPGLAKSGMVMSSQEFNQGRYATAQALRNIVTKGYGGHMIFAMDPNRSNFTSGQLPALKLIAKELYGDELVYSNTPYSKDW

| Binder | binding result [1] | binding result [2] | binding result [3] | binding result [4] | binding result [5] | binding result [6] | binding result [7] | binding result [8] |
| --- | --- | --- | --- | --- | --- | --- | --- | --- |
| anti-EGFR single-domain antibody aEG4D9 (purified) (VHH, fully human VH domain on the V3-23/D47 framework with diversified CDR1-3; Fully human VH-only single-domain antibody (about 15 kDa), selected from the Source BioScience human domain antibody library; subcloned NcoI/NotI into pET22b(+); also called anti-EGFR sdAb; source: E. coli BL21 (DE3), pET22b(+), purified (Ni-NTA)) VHH: QVQLLESGGGLVQPGGSLRLSCAASGDMLSPDNMTWVRQAPGKGLEWVSTIHKTDGSTYYADSVKGRFTISRDNSKNTLYLQMNSLRAEDTAVYYCAGLRSRGLSSKYLEYWGQGTLVTVSS | binds | no binding | no binding | no binding | binds | – | – | – |
| aEG4D9 displayed on phage (phage clone) (VHH, detected by anti-M13-HRP; source: E. coli TG1, phagemid pR2, rescued with M13 helper phage, phage clone) VHH: QVQLLESGGGLVQPGGSLRLSCAASGDMLSPDNMTWVRQAPGKGLEWVSTIHKTDGSTYYADSVKGRFTISRDNSKNTLYLQMNSLRAEDTAVYYCAGLRSRGLSSKYLEYWGQGTLVTVSS | – | – | – | – | – | no binding | no binding | no binding |
| anti-EGFR single-domain antibody aEG1B4 (purified) (VHH, fully human VH domain on the V3-23/D47 framework with diversified CDR1-3; Fully human VH-only single-domain antibody (about 15 kDa), selected from the Source BioScience human domain antibody library; subcloned NcoI/NotI into pET22b(+); also called anti-EGFR sdAb; source: E. coli BL21 (DE3), pET22b(+), purified (Ni-NTA)) VHH: QVQLLESGGGLVQPGGSLRLSCAASGVNVSNEVMSWVRQAPGKGLEWVSTIANHSGSTYYADSVKGRFTISRDNSKNTLYLQMNSLRAEDTAVYYCATLYSGATKQLEYWGQGTLVTVSS | binds | no binding | no binding | no binding | binds | – | – | – |
| aEG1B4 displayed on phage (phage clone) (VHH, detected by anti-M13-HRP; source: E. coli TG1, phagemid pR2, rescued with M13 helper phage, phage clone) VHH: QVQLLESGGGLVQPGGSLRLSCAASGVNVSNEVMSWVRQAPGKGLEWVSTIANHSGSTYYADSVKGRFTISRDNSKNTLYLQMNSLRAEDTAVYYCATLYSGATKQLEYWGQGTLVTVSS | – | – | – | – | – | no binding | no binding | no binding |
| anti-EGFR single-domain antibody aEG6B2 (purified) (VHH, fully human VH domain on the V3-23/D47 framework with diversified CDR1-3; Fully human VH-only single-domain antibody (about 15 kDa), selected from the Source BioScience human domain antibody library; subcloned NcoI/NotI into pET22b(+); also called anti-EGFR sdAb; source: E. coli BL21 (DE3), pET22b(+), purified (Ni-NTA)) VHH: QVQLLESGGGLVQPGGSLRLSCAASGFNVNPKYMTWVRQAPGKGLEWVSSIRSPGGSTYYADSVKGRFTISRDNSKNTLYLQMNSLRAEDTAVYYCASVSRDEKYMRFWGQGTLVTVSS | binds | no binding | no binding | no binding | binds | – | – | – |
| aEG6B2 displayed on phage (phage clone) (VHH, detected by anti-M13-HRP; source: E. coli TG1, phagemid pR2, rescued with M13 helper phage, phage clone) VHH: QVQLLESGGGLVQPGGSLRLSCAASGFNVNPKYMTWVRQAPGKGLEWVSSIRSPGGSTYYADSVKGRFTISRDNSKNTLYLQMNSLRAEDTAVYYCASVSRDEKYMRFWGQGTLVTVSS | – | – | – | – | – | no binding | no binding | no binding |
| anti-EGFR single-domain antibody aEG2E12 (purified) (VHH, fully human VH domain on the V3-23/D47 framework with diversified CDR1-3; Fully human VH-only single-domain antibody (about 15 kDa), selected from the Source BioScience human domain antibody library; subcloned NcoI/NotI into pET22b(+); also called anti-EGFR sdAb; source: E. coli BL21 (DE3), pET22b(+), purified (Ni-NTA)) VHH: QVQLLESGGGLVQPGGSLRLSCAASGYSSNNEFMAWVRQAPGKGLEWVSAISTRNGSTYYADSVKGRFTISRDNSKNTLYLQMNSLRAEDTAVYYCAGVSYRRPQQLKYWGQGTLVTVSS | binds | no binding | no binding | no binding | binds | – | – | – |
| aEG2E12 displayed on phage (phage clone) (VHH, detected by anti-M13-HRP; source: E. coli TG1, phagemid pR2, rescued with M13 helper phage, phage clone) VHH: QVQLLESGGGLVQPGGSLRLSCAASGYSSNNEFMAWVRQAPGKGLEWVSAISTRNGSTYYADSVKGRFTISRDNSKNTLYLQMNSLRAEDTAVYYCAGVSYRRPQQLKYWGQGTLVTVSS | – | – | – | – | – | no binding | no binding | no binding |
| anti-EGFR single-domain antibody aEG2C7 (purified) (VHH, fully human VH domain on the V3-23/D47 framework with diversified CDR1-3; Fully human VH-only single-domain antibody (about 15 kDa), selected from the Source BioScience human domain antibody library; subcloned NcoI/NotI into pET22b(+); also called anti-EGFR sdAb; source: E. coli BL21 (DE3), pET22b(+), purified (Ni-NTA)) VHH: QVQLLESGGGLVQPGGSLRLSCAASGFTFNNEIMAWVRQAPGKGLEWVSSIAANNGSTYYADSVKGRFTISRDNSKNTLYLQMNSLRAEDTAVYYCARYAAEPHTYSMGNKSLRYWGQGTLVTVSS | binds | no binding | no binding | no binding | binds | – | – | – |
| aEG2C7 displayed on phage (phage clone) (VHH, detected by anti-M13-HRP; source: E. coli TG1, phagemid pR2, rescued with M13 helper phage, phage clone) VHH: QVQLLESGGGLVQPGGSLRLSCAASGFTFNNEIMAWVRQAPGKGLEWVSSIAANNGSTYYADSVKGRFTISRDNSKNTLYLQMNSLRAEDTAVYYCARYAAEPHTYSMGNKSLRYWGQGTLVTVSS | – | – | – | – | – | no binding | no binding | no binding |
